# Measured values as given in patent US20240417459A1 (published 2024).
# B1: 9H9-7A3 LH (bispecific antibody)
# heavy: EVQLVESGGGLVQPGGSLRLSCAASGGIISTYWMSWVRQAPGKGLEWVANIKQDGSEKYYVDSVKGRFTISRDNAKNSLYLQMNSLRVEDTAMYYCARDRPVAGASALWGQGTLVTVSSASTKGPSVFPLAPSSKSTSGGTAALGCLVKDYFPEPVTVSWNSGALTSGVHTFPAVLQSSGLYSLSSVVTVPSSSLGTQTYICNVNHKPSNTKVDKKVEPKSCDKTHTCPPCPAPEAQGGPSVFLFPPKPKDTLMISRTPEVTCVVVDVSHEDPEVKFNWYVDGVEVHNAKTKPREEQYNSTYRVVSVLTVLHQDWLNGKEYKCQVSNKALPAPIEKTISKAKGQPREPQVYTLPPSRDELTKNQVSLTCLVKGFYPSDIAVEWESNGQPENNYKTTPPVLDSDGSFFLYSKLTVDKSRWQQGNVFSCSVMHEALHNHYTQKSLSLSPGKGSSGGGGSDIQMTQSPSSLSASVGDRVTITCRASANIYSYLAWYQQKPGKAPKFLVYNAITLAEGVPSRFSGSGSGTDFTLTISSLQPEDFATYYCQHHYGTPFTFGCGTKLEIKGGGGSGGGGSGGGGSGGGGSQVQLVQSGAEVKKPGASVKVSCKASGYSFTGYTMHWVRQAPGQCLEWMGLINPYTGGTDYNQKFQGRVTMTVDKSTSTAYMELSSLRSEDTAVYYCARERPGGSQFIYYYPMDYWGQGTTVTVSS
# light: DIQMTQSPSTLSASVGDRVTITCRASQSISGWLAWYQQKPGKAPKLLIYKASSLESGVPSRFSGSGSGTEFTLTISSLQPDDFATYYCQQYYGSSRTFGQGTNVEIKRTVAAPSVFIFPPSDEQLKSGTASVVCLLNNFYPREAKVQWKVDNALQSGNSQESVTEQDSKDSTYSLSSTLTLSKADYEKHKVYACEVTHQGLSSPVTKSFNRGEC
# B2: 9H9-7B1 HL (bispecific antibody)
# heavy: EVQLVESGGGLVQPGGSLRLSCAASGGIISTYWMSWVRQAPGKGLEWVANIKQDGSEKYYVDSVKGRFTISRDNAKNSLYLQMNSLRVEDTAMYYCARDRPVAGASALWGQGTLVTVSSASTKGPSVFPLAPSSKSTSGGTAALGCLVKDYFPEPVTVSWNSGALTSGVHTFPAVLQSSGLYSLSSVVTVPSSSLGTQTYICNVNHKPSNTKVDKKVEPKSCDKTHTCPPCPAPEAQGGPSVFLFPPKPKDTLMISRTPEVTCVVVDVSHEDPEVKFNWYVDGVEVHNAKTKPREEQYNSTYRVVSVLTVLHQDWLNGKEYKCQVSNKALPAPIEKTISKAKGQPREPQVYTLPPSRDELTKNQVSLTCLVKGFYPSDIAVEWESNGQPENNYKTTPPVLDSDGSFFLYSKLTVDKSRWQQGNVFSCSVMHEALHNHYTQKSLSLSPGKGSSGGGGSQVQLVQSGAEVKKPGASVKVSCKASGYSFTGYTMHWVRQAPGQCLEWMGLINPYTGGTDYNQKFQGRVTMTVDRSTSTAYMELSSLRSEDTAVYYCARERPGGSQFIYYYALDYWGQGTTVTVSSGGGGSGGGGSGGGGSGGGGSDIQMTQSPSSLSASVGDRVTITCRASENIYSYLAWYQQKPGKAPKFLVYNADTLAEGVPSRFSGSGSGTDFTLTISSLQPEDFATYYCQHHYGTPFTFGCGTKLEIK
# light: B1 light
# B3: 9H9-7B1 LH (bispecific antibody)
# heavy: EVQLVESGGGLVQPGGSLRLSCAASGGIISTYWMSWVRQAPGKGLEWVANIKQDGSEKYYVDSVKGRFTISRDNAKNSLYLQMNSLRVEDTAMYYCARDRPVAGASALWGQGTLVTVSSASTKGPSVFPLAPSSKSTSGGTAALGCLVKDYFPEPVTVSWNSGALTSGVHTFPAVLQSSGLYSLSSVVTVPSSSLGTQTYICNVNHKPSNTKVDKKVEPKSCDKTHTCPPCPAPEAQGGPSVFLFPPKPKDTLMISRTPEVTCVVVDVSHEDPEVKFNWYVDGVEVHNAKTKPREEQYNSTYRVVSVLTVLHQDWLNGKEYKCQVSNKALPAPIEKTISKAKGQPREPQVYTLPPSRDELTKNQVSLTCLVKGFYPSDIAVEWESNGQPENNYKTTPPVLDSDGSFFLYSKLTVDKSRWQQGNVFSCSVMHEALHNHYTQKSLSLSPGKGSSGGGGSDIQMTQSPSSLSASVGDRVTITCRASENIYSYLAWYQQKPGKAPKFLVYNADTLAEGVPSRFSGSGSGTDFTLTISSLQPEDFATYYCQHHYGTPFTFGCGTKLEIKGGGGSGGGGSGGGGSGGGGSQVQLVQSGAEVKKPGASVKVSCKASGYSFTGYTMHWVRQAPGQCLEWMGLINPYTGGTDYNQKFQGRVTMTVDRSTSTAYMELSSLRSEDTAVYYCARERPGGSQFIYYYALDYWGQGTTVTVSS
# light: B1 light
# B4: 9H9-7A3 HL (bispecific antibody)
# heavy: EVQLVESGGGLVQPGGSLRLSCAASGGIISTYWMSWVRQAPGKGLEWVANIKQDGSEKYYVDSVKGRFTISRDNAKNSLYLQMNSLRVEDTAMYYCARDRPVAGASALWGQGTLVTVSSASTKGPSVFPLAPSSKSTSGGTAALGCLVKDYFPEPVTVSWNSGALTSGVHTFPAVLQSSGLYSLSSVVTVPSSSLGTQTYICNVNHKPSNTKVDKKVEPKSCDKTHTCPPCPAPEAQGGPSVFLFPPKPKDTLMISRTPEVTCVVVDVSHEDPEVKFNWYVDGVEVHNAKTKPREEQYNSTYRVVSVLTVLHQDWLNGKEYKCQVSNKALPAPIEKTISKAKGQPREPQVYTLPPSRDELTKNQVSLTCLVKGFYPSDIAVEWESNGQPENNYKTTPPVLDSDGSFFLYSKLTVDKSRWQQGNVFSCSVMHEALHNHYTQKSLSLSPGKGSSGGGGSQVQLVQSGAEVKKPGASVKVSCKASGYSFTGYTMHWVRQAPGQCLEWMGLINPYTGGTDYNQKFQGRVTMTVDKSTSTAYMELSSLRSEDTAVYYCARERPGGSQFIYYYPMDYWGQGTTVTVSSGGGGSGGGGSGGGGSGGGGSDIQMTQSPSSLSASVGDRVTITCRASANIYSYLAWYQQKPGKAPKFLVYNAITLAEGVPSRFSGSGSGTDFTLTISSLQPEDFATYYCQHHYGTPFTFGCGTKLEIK
# light: B1 light
# Biological target: human ILT4-HIS
# Experiment: BLI (Octet)
row,Kd,Binder
1,0.282 nM,B1
2,0.139 nM,B2
3,0.056 nM,B3
4,0.308 nM,B4
